# Experimental data taken from patent US20230060574A1 (Ablynx, published 2023).
# B1: serum albumin binder of SEQ ID NO:19 (invention), T023500029 (VHH)
# VHH: EVQLVESGGGVVQPGDSLRLSCAASGGTFSTYVMGWFRQAPGKEREFVSAISQNSIHTYYANSVKGRFTISRDNSKNTVYLQLNSLRPEDTALYYCAASRFTSWYTADYEYDYWGQGTLVTVSS
# notes: No tag is mentioned there
# Tests used:
# Test in all cases: SPR ProteOn, SA immobilized, pH 7.4
# [1] = target: T1, human serum albumin (Sigma-Aldrich A3782) (human, UniProt P02768 25-609)
# T1 construct: Bought protein; also called HSA; human SA
# [2] = target: T2, cynomolgus monkey serum albumin (generated in-house) (cynomolgus monkey, UniProt A2V9Z4 25-608, limits assumed)
# T2 construct: also called cyno SA
# [3] = target: T3, rat serum albumin (Sigma-Aldrich A4538) (rat, UniProt P02770 25-608)
# T3 construct: Bought protein; also called rat SA
# [4] = target: T4, mouse serum albumin (Albumin Bioscience 2601) (mouse, UniProt P07724 25-608)
# T4 construct: Bought protein; also called mouse SA
# [5] = target: T5, guinea pig serum albumin (Gentaur GPSA62) (guinea pig)
# T5 construct: Bought protein; also called guinea pig SA
# [6] = target: T6, dog serum albumin (Abcam 119814) (dog, UniProt P49822 25-608)
# T6 construct: Bought protein; also called dog SA
# [7] = target: T7, pig serum albumin (Sigma-Aldrich A4414) (pig, UniProt P08835 25-607)
# T7 construct: Bought protein; also called pig SA
binder,measurement,setting,value
B1,koff,[1],0.00027 s⁻¹
same,kon,[1],610000 M⁻¹ s⁻¹
same,koff,[2],0.00023 s⁻¹
same,kon,[2],520000 M⁻¹ s⁻¹
same,koff,[3],8e-05 s⁻¹
same,kon,[3],1.2e+06 M⁻¹ s⁻¹
same,koff,[4],0.00025 s⁻¹
same,kon,[4],910000 M⁻¹ s⁻¹
same,Kd,[5],0.3 nM
same,koff,[5],0.00031 s⁻¹
same,kon,[5],1e+06 M⁻¹ s⁻¹
same,koff,[6],0.00084 s⁻¹
same,kon,[6],720000 M⁻¹ s⁻¹
same,koff,[7],0.0046 s⁻¹
same,kon,[7],100000 M⁻¹ s⁻¹
